# From patent US20140072613A1 (published 2014)
# T1: Tec(h)activated (human, UniProt P42680 1-631, limits assumed)
# T1 sequence (looked up): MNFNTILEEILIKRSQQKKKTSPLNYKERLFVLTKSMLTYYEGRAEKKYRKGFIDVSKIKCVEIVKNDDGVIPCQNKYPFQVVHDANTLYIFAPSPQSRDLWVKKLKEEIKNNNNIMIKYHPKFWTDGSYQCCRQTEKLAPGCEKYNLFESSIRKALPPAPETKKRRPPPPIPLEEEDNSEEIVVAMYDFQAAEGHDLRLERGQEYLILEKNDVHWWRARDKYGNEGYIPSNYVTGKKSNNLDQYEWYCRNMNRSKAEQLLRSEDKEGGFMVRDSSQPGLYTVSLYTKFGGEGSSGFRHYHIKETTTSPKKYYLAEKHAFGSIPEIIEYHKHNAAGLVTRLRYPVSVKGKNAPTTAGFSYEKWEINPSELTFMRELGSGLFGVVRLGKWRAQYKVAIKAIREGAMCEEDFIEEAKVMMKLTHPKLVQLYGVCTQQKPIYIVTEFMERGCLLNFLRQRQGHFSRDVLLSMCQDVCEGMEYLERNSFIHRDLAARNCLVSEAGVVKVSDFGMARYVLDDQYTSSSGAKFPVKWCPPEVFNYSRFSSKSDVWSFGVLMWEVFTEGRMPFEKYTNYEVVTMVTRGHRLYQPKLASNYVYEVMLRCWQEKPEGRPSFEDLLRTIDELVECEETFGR
# T2: CHK1(h) (human, UniProt O14757 1-476)
# T2 sequence (looked up): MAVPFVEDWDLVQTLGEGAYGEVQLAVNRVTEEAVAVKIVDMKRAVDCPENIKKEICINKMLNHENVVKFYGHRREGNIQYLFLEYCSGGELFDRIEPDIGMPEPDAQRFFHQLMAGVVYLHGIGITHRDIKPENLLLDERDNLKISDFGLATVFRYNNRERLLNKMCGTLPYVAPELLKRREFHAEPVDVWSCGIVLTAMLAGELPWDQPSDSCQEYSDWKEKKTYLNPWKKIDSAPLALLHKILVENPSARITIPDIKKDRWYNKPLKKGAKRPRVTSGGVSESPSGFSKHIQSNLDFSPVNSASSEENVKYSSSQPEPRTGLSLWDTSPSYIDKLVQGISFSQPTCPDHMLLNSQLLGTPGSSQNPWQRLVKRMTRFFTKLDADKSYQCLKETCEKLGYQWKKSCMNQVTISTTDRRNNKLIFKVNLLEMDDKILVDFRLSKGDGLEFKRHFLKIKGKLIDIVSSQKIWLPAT
# T3: EphB4(h) (human, UniProt P54760 561-987, limits assumed)
# T3 sequence (looked up): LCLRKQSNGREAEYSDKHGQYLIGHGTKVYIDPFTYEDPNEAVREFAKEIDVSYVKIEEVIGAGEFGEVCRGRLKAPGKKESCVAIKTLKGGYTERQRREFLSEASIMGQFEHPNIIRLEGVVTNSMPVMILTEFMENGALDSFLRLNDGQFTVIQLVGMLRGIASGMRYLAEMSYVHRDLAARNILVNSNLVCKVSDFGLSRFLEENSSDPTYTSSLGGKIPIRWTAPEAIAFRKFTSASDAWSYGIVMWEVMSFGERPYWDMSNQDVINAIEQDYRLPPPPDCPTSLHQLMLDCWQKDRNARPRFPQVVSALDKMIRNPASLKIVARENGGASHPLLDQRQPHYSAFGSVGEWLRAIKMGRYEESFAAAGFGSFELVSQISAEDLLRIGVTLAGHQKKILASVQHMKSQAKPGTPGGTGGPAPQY
# T4: BrSK1(h) (human, UniProt Q8TDC3 1-778, limits assumed)
# T4 sequence (looked up): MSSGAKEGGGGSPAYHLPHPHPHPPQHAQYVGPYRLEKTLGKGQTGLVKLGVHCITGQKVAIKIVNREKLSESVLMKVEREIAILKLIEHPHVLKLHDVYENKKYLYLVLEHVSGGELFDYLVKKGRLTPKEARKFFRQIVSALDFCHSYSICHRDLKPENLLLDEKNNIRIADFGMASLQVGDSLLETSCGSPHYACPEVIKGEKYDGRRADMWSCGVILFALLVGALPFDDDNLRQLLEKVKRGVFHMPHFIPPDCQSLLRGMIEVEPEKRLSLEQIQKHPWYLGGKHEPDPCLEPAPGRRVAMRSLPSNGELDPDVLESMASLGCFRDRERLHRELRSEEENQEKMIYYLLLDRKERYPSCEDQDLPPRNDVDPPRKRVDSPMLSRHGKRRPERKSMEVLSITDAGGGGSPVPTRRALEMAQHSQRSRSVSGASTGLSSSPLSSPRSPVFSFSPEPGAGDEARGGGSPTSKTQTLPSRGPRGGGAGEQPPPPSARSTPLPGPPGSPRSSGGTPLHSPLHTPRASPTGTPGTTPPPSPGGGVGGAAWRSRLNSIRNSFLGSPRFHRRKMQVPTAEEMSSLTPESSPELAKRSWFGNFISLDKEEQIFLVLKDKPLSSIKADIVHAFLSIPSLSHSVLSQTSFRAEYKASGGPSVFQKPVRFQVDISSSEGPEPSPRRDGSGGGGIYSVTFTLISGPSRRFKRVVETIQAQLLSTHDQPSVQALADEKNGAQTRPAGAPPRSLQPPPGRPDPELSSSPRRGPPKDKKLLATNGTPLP
# Legend:
# Test in all cases: cell-based or functional assay
# Met(D1246H)(h) = Met(D1246H)(h) (human, UniProt P08581-2 974-1408, limits assumed)
# PDGFRβ(h) = PDGFRβ(h) (human, UniProt P09619 557-1106, limits assumed)
# Chain of PDGFRβ(h) (P09619 557-1106 limits assumed): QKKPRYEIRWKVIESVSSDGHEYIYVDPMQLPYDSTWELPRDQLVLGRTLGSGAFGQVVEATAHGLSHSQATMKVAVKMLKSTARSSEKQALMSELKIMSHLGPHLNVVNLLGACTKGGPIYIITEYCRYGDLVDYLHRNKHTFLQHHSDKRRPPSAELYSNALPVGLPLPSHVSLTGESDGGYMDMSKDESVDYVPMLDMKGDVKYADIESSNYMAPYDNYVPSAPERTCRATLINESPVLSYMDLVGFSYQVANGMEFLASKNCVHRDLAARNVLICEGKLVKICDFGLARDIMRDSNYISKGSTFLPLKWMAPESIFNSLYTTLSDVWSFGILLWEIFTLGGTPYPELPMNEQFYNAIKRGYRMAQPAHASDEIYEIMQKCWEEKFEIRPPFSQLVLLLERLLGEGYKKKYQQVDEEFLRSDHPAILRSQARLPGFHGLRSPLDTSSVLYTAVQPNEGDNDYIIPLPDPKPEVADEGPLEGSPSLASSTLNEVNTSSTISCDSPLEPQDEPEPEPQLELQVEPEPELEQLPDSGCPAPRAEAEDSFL
# Src(1-530)(h) = Src(1-530)(h) (human, UniProt P12931 1-530)
# Tec(h)activated = molecular target: T1, Tec(h)activated
# Ros(h) = Ros(h) (human, UniProt P08922 1883-2347, limits assumed)
# Chain of Ros(h) (P08922 1883-2347 limits assumed): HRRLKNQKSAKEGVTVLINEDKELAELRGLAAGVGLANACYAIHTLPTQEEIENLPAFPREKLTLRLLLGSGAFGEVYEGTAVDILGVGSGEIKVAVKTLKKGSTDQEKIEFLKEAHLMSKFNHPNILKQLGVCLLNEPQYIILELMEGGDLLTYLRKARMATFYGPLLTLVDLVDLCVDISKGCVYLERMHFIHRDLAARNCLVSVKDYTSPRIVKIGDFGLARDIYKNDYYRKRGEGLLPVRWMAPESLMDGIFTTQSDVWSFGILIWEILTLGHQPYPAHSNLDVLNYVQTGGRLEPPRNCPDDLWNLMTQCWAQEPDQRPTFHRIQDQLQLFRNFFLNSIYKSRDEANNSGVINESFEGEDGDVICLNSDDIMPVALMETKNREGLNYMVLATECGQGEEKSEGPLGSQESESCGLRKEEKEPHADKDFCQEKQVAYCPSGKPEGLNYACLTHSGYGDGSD
# AMPKα2(h) = AMPKα2(h) (human, UniProt P54646 1-552)
# Chain of AMPKα2(h) (P54646 whole entry): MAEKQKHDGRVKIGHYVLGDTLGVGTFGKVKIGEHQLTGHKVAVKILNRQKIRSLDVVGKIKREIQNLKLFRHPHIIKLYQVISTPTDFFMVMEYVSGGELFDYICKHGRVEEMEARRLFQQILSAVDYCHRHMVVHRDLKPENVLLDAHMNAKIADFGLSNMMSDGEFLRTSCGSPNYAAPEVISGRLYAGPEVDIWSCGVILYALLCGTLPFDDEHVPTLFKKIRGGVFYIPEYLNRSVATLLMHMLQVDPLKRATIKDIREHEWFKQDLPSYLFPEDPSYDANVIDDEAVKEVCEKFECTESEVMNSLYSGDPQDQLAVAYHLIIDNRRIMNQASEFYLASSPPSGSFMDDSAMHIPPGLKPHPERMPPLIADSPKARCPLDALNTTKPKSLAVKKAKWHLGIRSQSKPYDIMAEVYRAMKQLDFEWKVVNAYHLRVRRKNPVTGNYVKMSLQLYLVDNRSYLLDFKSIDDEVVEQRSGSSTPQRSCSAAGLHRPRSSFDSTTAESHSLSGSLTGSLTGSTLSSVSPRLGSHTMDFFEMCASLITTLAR
# CHK1(h) = molecular target: T2, CHK1(h)
# Lyn(h) = Lyn(h) (human, UniProt P07948 1-512)
# Chain of Lyn(h) (P07948 whole entry): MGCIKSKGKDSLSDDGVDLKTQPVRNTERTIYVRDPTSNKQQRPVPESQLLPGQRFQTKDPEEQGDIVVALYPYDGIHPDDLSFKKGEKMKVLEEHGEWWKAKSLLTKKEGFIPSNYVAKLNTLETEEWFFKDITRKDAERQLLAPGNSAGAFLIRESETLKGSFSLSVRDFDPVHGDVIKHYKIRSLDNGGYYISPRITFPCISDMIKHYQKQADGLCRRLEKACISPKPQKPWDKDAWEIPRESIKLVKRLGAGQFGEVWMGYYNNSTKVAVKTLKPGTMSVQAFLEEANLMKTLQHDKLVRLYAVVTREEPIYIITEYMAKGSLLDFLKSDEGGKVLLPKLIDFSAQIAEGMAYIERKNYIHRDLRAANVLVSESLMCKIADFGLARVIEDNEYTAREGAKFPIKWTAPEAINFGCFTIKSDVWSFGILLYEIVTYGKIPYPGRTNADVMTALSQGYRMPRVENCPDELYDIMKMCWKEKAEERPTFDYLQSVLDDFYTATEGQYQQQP
# RIPK2(h) = RIPK2(h) (human, UniProt O43353 1-299, limits assumed)
# Chain of RIPK2(h) (O43353 1-299 limits assumed): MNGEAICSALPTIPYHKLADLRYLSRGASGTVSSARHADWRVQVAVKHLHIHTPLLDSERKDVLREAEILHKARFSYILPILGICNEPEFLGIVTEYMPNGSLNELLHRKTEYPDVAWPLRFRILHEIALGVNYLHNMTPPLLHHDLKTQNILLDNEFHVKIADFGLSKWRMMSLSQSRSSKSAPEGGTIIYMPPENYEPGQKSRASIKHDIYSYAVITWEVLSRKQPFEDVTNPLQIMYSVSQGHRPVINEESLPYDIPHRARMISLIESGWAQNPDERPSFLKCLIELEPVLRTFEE
# Hck(h) = Hck(h) (human, UniProt P08631 251-518, limits assumed)
# Chain of Hck(h) (P08631 251-518 limits assumed): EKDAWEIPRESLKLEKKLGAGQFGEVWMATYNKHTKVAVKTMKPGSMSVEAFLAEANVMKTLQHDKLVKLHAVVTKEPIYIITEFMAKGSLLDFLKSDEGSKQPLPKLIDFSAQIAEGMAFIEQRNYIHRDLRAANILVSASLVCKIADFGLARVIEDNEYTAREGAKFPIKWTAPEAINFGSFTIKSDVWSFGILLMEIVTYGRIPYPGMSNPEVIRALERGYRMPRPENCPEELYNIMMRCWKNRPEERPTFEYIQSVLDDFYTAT
# EphB4(h) = molecular target: T3, EphB4(h)
# GSK3α(h) = GSK3α(h) (human, UniProt P49840 1-483)
# Chain of GSK3α(h) (P49840 whole entry): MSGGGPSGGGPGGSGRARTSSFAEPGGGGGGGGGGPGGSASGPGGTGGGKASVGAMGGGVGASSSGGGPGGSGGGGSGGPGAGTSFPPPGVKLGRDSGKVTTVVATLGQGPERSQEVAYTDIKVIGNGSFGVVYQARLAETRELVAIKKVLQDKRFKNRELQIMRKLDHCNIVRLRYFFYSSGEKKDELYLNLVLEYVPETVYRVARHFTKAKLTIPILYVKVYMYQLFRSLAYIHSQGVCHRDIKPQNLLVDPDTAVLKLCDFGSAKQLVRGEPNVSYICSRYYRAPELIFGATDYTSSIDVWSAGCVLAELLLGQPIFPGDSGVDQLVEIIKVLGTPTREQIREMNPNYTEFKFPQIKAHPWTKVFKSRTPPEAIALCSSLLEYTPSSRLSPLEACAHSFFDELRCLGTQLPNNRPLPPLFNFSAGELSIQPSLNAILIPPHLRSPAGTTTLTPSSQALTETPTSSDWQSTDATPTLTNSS
# BrSK1(h) = molecular target: T4, BrSK1(h)
Binder,"% activity, 100 µM (Met(D1246H)(h)) [%]","% activity, 100 µM (PDGFRβ(h)) [%]","% activity, 100 µM (Src(1-530)(h)) [%]","% activity, 100 µM (Tec(h)activated) [%]","% activity, 100 µM (Ros(h)) [%]","% activity, 100 µM (AMPKα2(h)) [%]","% activity, 100 µM (CHK1(h)) [%]","% activity, 100 µM (Lyn(h)) [%]","% activity, 100 µM (RIPK2(h)) [%]","% activity, 100 µM (Hck(h)) [%]","% activity, 100 µM (EphB4(h)) [%]","% activity, 100 µM (GSK3α(h)) [%]","% activity, 100 µM (BrSK1(h)) [%]"
FAKLAARLYRKALARQLGVAA [MMI-0300],125,81,23,56,95,54,91,69,97,72,44,157,67
KAFAKLAARLYRKALARQLGVAA [MMI-0400],68,53,19,29,99,58,87,3,98,72,28,164,76
